Source: patent US20240025997A1 (NGM BIOPHARMACEUTICALS, published 2024)

B1: anti-ILT2 antibody 27F9 (antibody, V domains shown)
VH: QVQLKESGPGLVAPSQSLSITCTVSGFSLTNYGVSWVRQPPGKGLEWLGIIWGDGSTNYHSALISRLSISKDNSKSQVFLKLNSLQADDTATYYCAKPNWDTYAMDFWGQGTSVTVSS
VL: DIQMTQTTSSLSASLGDRVTISCRASQDISNFLNWYQQKPDGTVKLLIYCTSKLHSGVPSRFSGSGSETDYSLTISNLEQEDIATYFCQQGNTLPPTFGGGTKLEII
notes: Mouse hybridoma antibody; also called clone 27F9; anti-ILT2 (27F9)
B2: anti-ILT4 antibody 47C8 (antibody, V domains shown)
VH: EVQLQQSGPDLVKPGASVKISCKASGYSFTGYYMHWVKQSHGKSLEWIGRVYPNNGDTSYNQKFKVKAILTVDKSSSTAYMELRSLTSEDSAVYYCARGATVVESLFAYWGQGTLVTVSA
VL: DIVLTQSPASLAVSLGQRATISCRASESVDNYGNNFLHWYQQKPGQPPKLLIYRTSNLESGIPARFSGSGSRTDFTLTINPVEADDVATYYCQQSNEDPYTFGGGTKLEIK
notes: Mouse hybridoma antibody

Experiments:
soluble human ILT2-ECD [1] = biological target: T1, soluble human ILT2-ECD (human, UniProt Q8NHL6 24-461); assay: Biacore competition: antibody titrated against 20 nM ILT2-ECD, mixture injected over biotinylated HLA-A*1101 on a NeutrAvidin chip; blocked ligand HLA-A*1101
T1 construct: also called LILRB1 extracellular domain
Description: (§1) As part of the characterization process, the ability of exemplary antibodies to inhibit or block the interaction of ILT2 or ILT4 with their natural ligands was evaluated in competition experiments using a Biacore system. As described herein, the natural ligands of ILT2 and ILT4 include, but are not limited to, HLA class I molecules, including HLA-A, HLA-B, HLA-C, HLA-E, and HLA-G. Biotinylated HLA-A*1101 was captured in high amounts on a NeutrAvidin chip surface. Antigen-antibody complexes were prepared with (i) ILT2-ECD and anti-ILT2 antibody 27F9, anti-ILT4 antibody 48A5, or anti-ILT2/ILT4 antibody Hz73D1.v1 and (ii) ILT4-ECD and anti-ILT2 antibody 27F9, anti-ILT4 antibody 48A5, or anti-ILT2/ILT4 antibody Hz73D1.v1. The antibody concentration of each antibody was titrated from 0.09-100 nM and the concentration of human ILT2-ECD or ILT4-ECD was kept constant at 20 nM. The complexes were mixed in a 96-well microplate and each was injected onto the HLA-A-coated chip surface. The measured signal (response unit, RU) was plotted against the antibody concentration.

soluble human ILT2-ECD [2] = biological target: T1, soluble human ILT2-ECD; assay: SPR (Biacore), antibody captured on Protein A chip, soluble ILT-ECD injected (1.6-200 nM), 25 C
Description: (§2) The binding affinities of anti-ILT2 and anti-ILT4 antibodies were measured using a Biacore system (GE Healthcare LifeSciences). Equilibrium dissociation constant (KD) measurements were carried out with purified antibodies to evaluate their binding to human ILT2, human ILT4, and rhesus ILT2. Briefly, purified anti-ILT2 antibody 27F9, anti-ILT4 antibodies 47C8 and 48A5, and anti-ILT2/ILT4 antibodies 47H6, 51A1, 64A12, 73C4, and 73D1 were captured on a Sensor Chip Protein A (GE HealthCare). The surface of the Biacore Sensor Chip Protein A consists of a carboxymethylated dextran matrix with a recombinant Protein A variant covalently attached. Soluble human ILT2-ECD, human ILT4-ECD, or rhesus ILT2-ECD were injected at a flow rate of 30 μL/min at 25° C. The ILT2 or ILT4 proteins were used at concentrations ranging from 1.6-200 nM in PBS-P buffer with 2 fold dilutions. Kinetic data were collected over time and fit using the simultaneous global fit equation to yield affinity constants (KD values) for each antibody.

soluble human ILT4-ECD [3] = biological target: T2, soluble human ILT4-ECD (human, UniProt Q8N423 22-460); assay: Biacore competition: antibody titrated against 20 nM ILT4-ECD, mixture injected over biotinylated HLA-A*1101 on a NeutrAvidin chip
T2 construct: also called LILRB2 extracellular domain
Description: as §1

[4] = biological target: T3, human ILT4 chimeric reporter receptor (ILT4 extracellular domain fused to PILRbeta … (human, UniProt Q8N423 22-460)); assay: reporter cell assay (not a direct binding assay): human ILT4 reporter cells co-cultured with Raji cells, %GFP+ by FACS
T3 construct: On the surface of NFAT-GFP reporter cells; associates with DAP12; also called ILT4 reporter cells; Human ILT4 reporter construct; not shown: The PILRbeta transmembrane/intracellular domain
Description: The ability of anti-ILT2/ILT4 antibodies to inhibit the interaction between ILT2 and/or ILT4 and MHC I molecules was evaluated using a reporter cell system. […] In this chimeric receptor system, the extracellular domain of the receptor of interest (e.g., ILT2 or ILT4) is fused with the transmembrane/intracellular domain of PILRβ that associates with the adaptor protein DAP12. When the chimeric receptor (e.g., ILT2 or ILT-4) is activated by binding to a ligand (e.g., MHC I molecule), DAP12 becomes phosphorylated and activates an NFAT-responsive promoter which drives GFP expression (see, e.g., Deng et al., 2014, Blood, 124:924-935).
Reporter cells were washed after staining and resuspended at 1×10⁶ cells/ml in X-VIVO™ 15 media (Lonza). […] For assays with Raji cells: anti-ILT2 antibody 27F9, anti-ILT4 antibody 48A5, anti-ILT2/ILT4 antibody 73D1 and Hz73D1.v1, and a control antibody were serially diluted and 50 μl was added to each well of a 96-well flat-bottom cell culture plate. […] The plates were incubated overnight at 37° C. The next day, reporter cells were assayed for GFP expression by FACS.

Human ILT2-Fc = Human ILT2-Fc (human, UniProt Q8NHL6 24-461, limits assumed); assay: SPR (Biacore) competition: blocking of human ILT2-Fc binding to HLA-A, 25 C
Description: In addition to the reporter cell system, the inhibitory activity of anti-ILT2/ILT4 antibodies towards the interaction between ILT2 and MHC I molecules, and the interaction between ILT4 and MHC I molecules was evaluated using the Biacore system. Human ILT2-Fc and ILT4-Fc were used as target receptors and their interaction with an exemplary MHC-I molecule (HLA-A) was assayed in the presence or absence of an exemplary anti-ILT2/ILT4 antibody Hz73D1.v1 at 25° C. Anti-human ILT2 (clone 27F9) or ILT4 (clone 48A5) antibodies were used as tool reagents to dissect ILT2- and ILT4-specific blocking activities. Anti-IL2/ILT4 antibodies produced a dose-dependent reduction in the interaction between ILT2 and HLA-A, as well as between ILT4 and HLA-A. IC50s of the antibodies tested are shown in Table 16.

human ILT2 on cells = human ILT2 on cells (human, UniProt Q8NHL6 24-650); assay: cell-based or functional assay
human ILT4 on cells = biological target: T4, human ILT4 on cells (human, UniProt Q8N423 22-597); assay: flow cytometry, fluorescently labelled antibody on immune cell subsets of PBMC / red-cell-depleted whole blood
T4 construct: also called LILRB2; human ILT4 expressed on 293T cells
Description: Flow cytometry analysis of blood immune cells was performed on human and cyno PBMC and whole blood. PBMC were prepared from a leukopak (Allcells Inc.) by centrifugation through ficoll, washing with PBS and freezing in cryopreservation buffer in liquid nitrogen until use. Whole blood (Allcells Inc.) was obtained fresh and red blood cells (RBC) depleted using ammonium chloride RBC lysing solution (Biolegend). PBMC or whole blood samples were stained with a fluorescently labeled antibody panel to distinguish various immune subsets (monocytes, B cells, NK cells, CD4+ and CD8+ T cells, neutrophils and eosinophils). Samples were further stained with fluorescently labeled isotype, 27F9 (ILT2 specific), 48A5 (ILT4 specific), 73D1, and Hz73D1.v1. The number of ILT2 and ILT4 molecules per cell of each immune subset was estimated by incubation with Quantum Simply Cellular microspheres followed by flow cytometry analysis.

soluble human ILT2-ECD [5] = biological target: T1, soluble human ILT2-ECD; assay: SPR (Biacore), antibody captured on Protein A chip, soluble human ILT2-ECD injected, 25 C
Description: as §2

soluble human ILT4-ECD [6] = biological target: T2, soluble human ILT4-ECD; assay: SPR (Biacore), antibody captured on Protein A chip, soluble ILT-ECD injected (1.6-200 nM), 25 C
Description: as §2

T2 sequence (Q8N423 other isoform, or with tags, fused parts or gaps): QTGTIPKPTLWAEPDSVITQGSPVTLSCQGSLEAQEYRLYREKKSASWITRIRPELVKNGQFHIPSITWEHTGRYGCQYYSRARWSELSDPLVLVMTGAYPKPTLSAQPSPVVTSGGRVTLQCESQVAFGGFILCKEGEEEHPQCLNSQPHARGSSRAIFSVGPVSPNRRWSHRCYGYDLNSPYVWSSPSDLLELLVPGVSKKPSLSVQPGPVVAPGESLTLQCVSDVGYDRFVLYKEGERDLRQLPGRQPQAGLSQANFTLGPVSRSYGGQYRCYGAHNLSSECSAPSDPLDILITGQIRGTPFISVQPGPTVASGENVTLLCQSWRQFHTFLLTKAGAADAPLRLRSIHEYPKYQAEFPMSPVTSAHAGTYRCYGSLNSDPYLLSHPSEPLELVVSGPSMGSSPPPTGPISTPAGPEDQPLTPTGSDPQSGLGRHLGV
T1 sequence (Q8NHL6 24-461): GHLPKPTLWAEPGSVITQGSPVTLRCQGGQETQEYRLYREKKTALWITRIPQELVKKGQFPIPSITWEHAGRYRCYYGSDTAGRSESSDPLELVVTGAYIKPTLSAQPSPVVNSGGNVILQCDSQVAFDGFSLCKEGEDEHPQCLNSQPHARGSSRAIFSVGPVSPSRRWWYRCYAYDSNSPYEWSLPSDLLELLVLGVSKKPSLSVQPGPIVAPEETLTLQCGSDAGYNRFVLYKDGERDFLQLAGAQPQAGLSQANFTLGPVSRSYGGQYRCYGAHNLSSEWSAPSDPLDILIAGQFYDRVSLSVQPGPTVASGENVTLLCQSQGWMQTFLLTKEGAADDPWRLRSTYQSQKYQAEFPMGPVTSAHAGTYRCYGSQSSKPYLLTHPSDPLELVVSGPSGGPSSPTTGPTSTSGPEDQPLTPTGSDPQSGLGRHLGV
T4 sequence (Q8N423 other isoform, or with tags, fused parts or gaps): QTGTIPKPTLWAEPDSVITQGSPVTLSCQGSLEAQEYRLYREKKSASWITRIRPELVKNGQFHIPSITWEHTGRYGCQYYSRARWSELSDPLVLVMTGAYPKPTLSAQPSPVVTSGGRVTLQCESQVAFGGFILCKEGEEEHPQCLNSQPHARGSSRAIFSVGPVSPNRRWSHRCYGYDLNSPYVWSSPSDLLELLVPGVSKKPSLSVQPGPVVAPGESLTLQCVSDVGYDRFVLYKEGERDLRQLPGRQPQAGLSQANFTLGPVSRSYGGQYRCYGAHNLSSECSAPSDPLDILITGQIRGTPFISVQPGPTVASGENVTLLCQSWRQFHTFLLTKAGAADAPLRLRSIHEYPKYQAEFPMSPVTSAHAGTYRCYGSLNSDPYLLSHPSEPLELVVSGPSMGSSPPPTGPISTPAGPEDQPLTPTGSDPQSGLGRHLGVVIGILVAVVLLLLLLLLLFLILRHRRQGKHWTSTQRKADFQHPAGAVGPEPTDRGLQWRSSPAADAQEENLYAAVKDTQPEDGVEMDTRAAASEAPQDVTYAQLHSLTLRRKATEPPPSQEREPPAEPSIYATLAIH
Sequence of Human ILT2-Fc (Q8NHL6 24-461 limits assumed): as the sequence (Q8NHL6 24-461) above
Sequence of human ILT2 on cells (Q8NHL6 24-650): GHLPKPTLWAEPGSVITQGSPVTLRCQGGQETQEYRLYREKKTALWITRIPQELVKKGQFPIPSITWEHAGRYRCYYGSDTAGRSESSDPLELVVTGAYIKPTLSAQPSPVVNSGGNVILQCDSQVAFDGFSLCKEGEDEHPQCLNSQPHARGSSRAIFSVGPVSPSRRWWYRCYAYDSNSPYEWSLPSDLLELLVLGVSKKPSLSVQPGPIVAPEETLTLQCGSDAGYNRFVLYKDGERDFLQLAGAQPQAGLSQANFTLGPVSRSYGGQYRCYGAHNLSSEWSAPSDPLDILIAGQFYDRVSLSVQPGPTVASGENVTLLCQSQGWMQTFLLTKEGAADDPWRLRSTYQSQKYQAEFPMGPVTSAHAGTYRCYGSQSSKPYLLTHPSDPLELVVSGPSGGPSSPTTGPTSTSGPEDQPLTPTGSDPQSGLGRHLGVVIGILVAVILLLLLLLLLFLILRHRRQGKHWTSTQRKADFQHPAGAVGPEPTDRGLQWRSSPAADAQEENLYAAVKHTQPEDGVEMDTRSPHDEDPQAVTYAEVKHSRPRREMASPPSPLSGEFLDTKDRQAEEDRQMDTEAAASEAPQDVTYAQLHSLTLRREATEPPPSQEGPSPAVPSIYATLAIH

Binder | IC50 (read off the curve) (soluble human ILT2-ECD [1]) [nM] | Kd (soluble human ILT2-ECD [2]) [nM] | koff (soluble human ILT2-ECD [2]) [s⁻¹] | kon (soluble human ILT2-ECD [2]) [M⁻¹ s⁻¹] | binding result (soluble human ILT4-ECD [3]) | binding result [4] | IC50 (Human ILT2-Fc) [nM] | EC50, NKL cytolytic activity against 721.221-HLA-G target cells (human ILT2 on cells) [nM] | binding result (human ILT4 on cells) | binding result (soluble human ILT2-ECD [5]) | Kd (soluble human ILT4-ECD [6]) [nM] | koff (soluble human ILT4-ECD [6]) [s⁻¹] | kon (soluble human ILT4-ECD [6]) [M⁻¹ s⁻¹]
B1 | ~9 | 0.26 | 5.4e-05 | 210000 | no binding (tested: about 200 nM) | no binding (tested: Log nM about 1.5 (about 30 nM)) | 8.9 | 0.064 | no binding (tested: not given) |  |  |  | 
B2 |  |  |  |  |  |  |  |  |  | no binding (tested: 1.6-200 nM) | 0.074 | 2.5e-05 | 340000
